Data on one molecule can be found in patent publication US20160158332A1 (US Dept. of Health and Human Services, published 2016).

The assay addresses T1, recombinant EcPyAMA1 (P. yoelii YM AMA1 residues 59-479 with a C-terminal histidine tag, E. coli, refolded) (Plasmodium yoelii YM).
T1 construct: not shown: C-terminal histidine tag
T1 chain: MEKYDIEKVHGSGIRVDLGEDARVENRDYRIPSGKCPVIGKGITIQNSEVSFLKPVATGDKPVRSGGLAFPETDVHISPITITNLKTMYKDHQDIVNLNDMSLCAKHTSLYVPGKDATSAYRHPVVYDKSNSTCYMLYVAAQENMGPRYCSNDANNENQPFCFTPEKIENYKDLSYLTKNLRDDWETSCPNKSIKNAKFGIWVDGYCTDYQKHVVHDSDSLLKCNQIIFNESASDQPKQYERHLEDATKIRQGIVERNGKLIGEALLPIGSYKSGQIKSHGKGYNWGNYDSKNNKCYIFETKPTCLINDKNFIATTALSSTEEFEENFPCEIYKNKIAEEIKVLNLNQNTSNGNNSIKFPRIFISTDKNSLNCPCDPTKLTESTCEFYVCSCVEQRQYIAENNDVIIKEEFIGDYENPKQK
In words: binding of RON2L peptide to PyAMA1, FIG. 3E.

Ends that are not written are not given here.

B1: PyRON2L peptide with the two cysteines mutated to alanines (Cys 1856 and 1868 to Ala) (peptide)
peptide: DITQHATDIGMGPSTSAYTSLLPPPKSIAIQQTVKTVLTNSTLASMK-NH2
notes: they are the two cysteines of the peptide; also called RON2Lc/a; c/a
In the case of B1, the binding result is “no binding”.
